US20160090427A1 (SAMSUNG ELECTRONICS, published 2016)

What was measured:
[1] = target: T1, human c-Met/Fc fusion protein (R&D Systems) (human, UniProt P08581 25-932); assay: ELISA, human c-Met/Fc fusion protein coated on plate, hybridoma culture, anti-mouse IgG-HRP
T1 construct: Bought reagent; also called c-Met-Fc (#358-MT/CF, R&D Systems); human c-Met/Fc protein; not shown: Fc part of the bought fusion protein
Experimental: Human c-Met/Fc fusion protein was seeded in an amount of 50 μL (2 μg/mL)/well to microtiter plates and allowed to adhere to the surface of each well. The antibody that remained unbound was removed by washing.
The hybridoma cell culture obtained in Reference Example 1.1.2 was added in an amount of 50 μL to each well of the plates and incubated for 1 hour. The cells remaining unreacted were washed out with a sufficient amount of Tris-buffered saline and Tween 20 (TBST). Goat anti-mouse IgG-horseradish peroxidase (HRP) was added to the plates and incubated for 1 hour at room temperature. The plates were washed with a sufficient amount of TBST, followed by reacting the peroxidase with a substrate (OPD). Absorbance at 450 nm was measured on an ELISA reader.

VEGF (R&D systems) = VEGF (R&D systems) (UniProt P15692-4 27-191, limits assumed); assay: SPR (Biacore T100), CM5 chip, VEGF; format unclear in the text
Experimental: An examination on whether the 8 anti-c-Met/anti-VEGF bispecific antibodies prepared in Example 2 maintains binding affinity to VEGF was conducted using Biacore T100(GE). VEGF (R&D systems) immobilized on the surface of CM5 chip (#BR-1005-30, GE) by amino coupling according to the manufacturer's instructions. About 90˜120 RU of the anti-c-Met/anti-VEGF bispecific antibody was captured, and […] was injected thereto at various concentrations. Then, a solution containing 1M NaCl and 5 mM NaOH was injected thereto to regenerate the surface. The obtained data were fitted using BlAevaluation software (GE Healthcare, Biacore T100 evaluation software), to measure the binding affinity to VEGF.

[2] = target: T1, human c-Met/Fc fusion protein (R&D …); assay: SPR (Biacore T100), bispecific captured by human Fab binder on CM5 chip, c-Met-Fc injected
Experimental: An examination on whether the anti-c-Met/anti-VEGF bispecific antibody maintains binding affinity to c-Met was conducted using Biacore T100(GE). A human Fab binding agent (GE Healthcare) was immobilized onto a CM5 chip (#BR-1005-30, GE) according to the manufacturer's instructions. About 90˜120 RU of the anti-c-Met/anti-VEGF bispecific antibody was captured, and c-Met-Fc (#358-MT/CF, R&D Systems) was injected thereto at various concentrations. Then, 10 mM Glycine-HCl (pH 2.1) solution was injected thereto to regenerate the surface. The obtained data were fitted using BlAevaluation software (GE Healthcare, Biacore T100 evaluation software), to measure the binding affinity to c-Met.

VEGF (R&D systems), sequence (P15692 other isoform, or with tags, fused parts or gaps limits assumed): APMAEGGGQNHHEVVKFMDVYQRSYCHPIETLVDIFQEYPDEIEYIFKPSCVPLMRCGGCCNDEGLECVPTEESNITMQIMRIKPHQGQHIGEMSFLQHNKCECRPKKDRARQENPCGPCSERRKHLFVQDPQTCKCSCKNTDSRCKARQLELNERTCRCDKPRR
T1 sequence (P08581 25-932 limits assumed): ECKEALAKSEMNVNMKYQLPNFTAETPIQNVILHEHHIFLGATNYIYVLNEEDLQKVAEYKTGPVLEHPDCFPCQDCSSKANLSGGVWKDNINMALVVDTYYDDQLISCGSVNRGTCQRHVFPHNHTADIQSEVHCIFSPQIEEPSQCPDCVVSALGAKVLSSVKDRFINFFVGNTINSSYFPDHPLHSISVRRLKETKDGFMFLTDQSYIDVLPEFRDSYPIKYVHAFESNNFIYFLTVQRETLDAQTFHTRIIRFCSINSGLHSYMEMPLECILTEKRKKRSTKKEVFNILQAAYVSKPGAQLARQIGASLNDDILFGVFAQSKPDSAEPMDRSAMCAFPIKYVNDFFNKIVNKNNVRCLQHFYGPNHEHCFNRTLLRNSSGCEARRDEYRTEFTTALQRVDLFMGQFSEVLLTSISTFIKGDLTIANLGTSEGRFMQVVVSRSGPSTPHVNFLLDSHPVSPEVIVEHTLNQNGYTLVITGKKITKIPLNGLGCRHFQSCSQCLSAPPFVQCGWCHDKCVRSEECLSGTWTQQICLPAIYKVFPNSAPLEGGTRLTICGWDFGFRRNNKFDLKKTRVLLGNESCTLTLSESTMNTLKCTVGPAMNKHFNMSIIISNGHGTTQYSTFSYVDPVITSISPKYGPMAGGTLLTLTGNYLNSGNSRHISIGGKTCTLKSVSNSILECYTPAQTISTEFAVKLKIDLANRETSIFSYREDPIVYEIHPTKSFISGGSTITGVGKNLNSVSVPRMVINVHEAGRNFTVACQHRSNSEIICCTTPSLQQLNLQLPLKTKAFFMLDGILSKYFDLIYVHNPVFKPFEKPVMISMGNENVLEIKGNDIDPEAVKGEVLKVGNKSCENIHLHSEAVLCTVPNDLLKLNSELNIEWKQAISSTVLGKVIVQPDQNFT

binding result [1] | Kd (VEGF (R&D systems)) [nM] | Kd [2] [nM] | Binder
binds |  |  | AbF46, mouse monoclonal antibody to c-Met (antibody, V domains shown, Tested as hybridoma culture supernatant in the selection ELISA; also called antibody of hybridoma KCLRF-BP-00220) VH: EVKLVESGGGLVQPGGSLRLSCATSGFTFTDYYMSWVRQPPGKALEWLGFIRNKANGYTTEYSASVKGRFTISRDNSQSILYLQMDTLRAEDSATYYCARDNWFAYWGQGTLVTVSA VL: DILMTQSPSSLTVSAGEKVTMSCKSSQSLLASGNQNNYLAWHQQKPGRSPKMLIIWASTRVSGVPDRFIGSGSGTDFTLTINSVQAEDLAVYYCQQSYSAPLTFGAGTKLELK
 | 1 | 0.3 | MV-19 anti-c-Met/anti-VEGF bispecific antibody (bispecific antibody, human IgG2, kappa) heavy: EVQLVESGGGLVQPGGSLRLSCAASGFTFTDYYMSWVRQAPGKGLEWLGFIRNKANGYTTEYSASVKGRFTISRDNSKNTLYLQMNSLRAEDTAVYYCARDNWFAYWGQGTLVTVSSASTKGPSVFPLAPCSRSTSESTAALGCLVKDYFPEPVTVSWNSGALTSGVHTFPAVLQSSGLYSLSSVVTVPSSNFGTQTYTCNVDHKPSNTKVDKTVERKCCVECPPCPAPPVAGPSVFLFPPKPKDTLMISRTPEVTCVVVDVSHEDPEVQFNWYVDGVEVHNAKTKPREEQFNSTFRVVSVLTVVHQDWLNGKEYKCKVSNKGLPAPIEKTISKTKGQPREPQVYTLPPSREEMTKNQVSLTCLVKGFYPSDIAVEWESNGQPENNYKTTPPMLDSDGSFFLYSKLTVDKSRWQQGNVFSCSVMHEALHNHYTQKSLSLSPGKGGGGSGGGGSEVQLLESGGGLVQPGGSLRLSCAASGFTFSSYSMSWVRQAPGKGLEWVSGISHGGGNKYYADSVKGRFTISRDNSKNTLYLQMNSLRAEDTAVYYCARDLRANNDTGFDYWGQGTLVTVSSGGGGSGGGGSGGGGTQSVLTQPPSSSGTPGQRVTISCTGSSSNIGSNAVTWYQQLPGTAPKLLIYDDNHRPSGVPDRFSGSKSGTSASLAISGLRSEDEADYYCGAWDYSLNAYVFGGGTKLTVLG light: DIQMTQSPSSLSASVGDRVTITCKSSQSLLASGNQNNYLAWYQQKPGKAPKMLIIWASTRVSGVPSRFSGSGSGTDFTLTISSLQPEDFATYYCQQSYSRPYTFGQGTKVEIKRTVAAPSVFIFPPSDEQLKSGTASVVCLLNNFYPREAKVQWKVDNALQSGNSQESVTEQDSKDSTYSLSSTLTLSKADYEKHKVYACEVTHQGLSSPVTKSFNRGEC
 | 8.27 | 0.04 | MV-21 anti-c-Met/anti-VEGF bispecific antibody (bispecific antibody, human IgG2, kappa) heavy: EVQLVESGGGLVQPGGSLRLSCAASGFTFTDYYMSWVRQAPGKGLEWLGFIRNKANGYTTEYSASVKGRFTISRDNSKNTLYLQMNSLRAEDTAVYYCARDNWFAYWGQGTLVTVSSASTKGPSVFPLAPCSRSTSESTAALGCLVKDYFPEPVTVSWNSGALTSGVHTFPAVLQSSGLYSLSSVVTVPSSNFGTQTYTCNVDHKPSNTKVDKTVERKCCVECPPCPAPPVAGPSVFLFPPKPKDTLMISRTPEVTCVVVDVSHEDPEVQFNWYVDGVEVHNAKTKPREEQFNSTFRVVSVLTVVHQDWLNGKEYKCKVSNKGLPAPIEKTISKTKGQPREPQVYTLPPSREEMTKNQVSLTCLVKGFYPSDIAVEWESNGQPENNYKTTPPMLDSDGSFFLYSKLTVDKSRWQQGNVFSCSVMHEALHNHYTQKSLSLSPGKGGGGSGGGGSEVQLLESGGGLVQPGGSLRLSCAASGFTFSGYAMSWVRQAPGKGLEWVSGISHDGGNTYYADSVKGRFTISRDNSKNTLYLQMNSLRAEDTAVYYCARDRRKGPSTEFDYWGQGTLVTVSSGGGGSGGGGSGGGGSQSVLTQPPSLSGTPGQRVTISCTGSSSNIGSNSVSWYQQLPGTAPKLLIYDDNNRPSGVPDRFSGSKSGTSASLAISGLRSEDEADYYCGAWDYSLSAYVFGGGTKLTVLG light: DIQMTQSPSSLSASVGDRVTITCKSSQSLLASGNQNNYLAWYQQKPGKAPKMLIIWASTRVSGVPSRFSGSGSGTDFTLTISSLQPEDFATYYCQQSYSRPYTFGQGTKVEIKRTVAAPSVFIFPPSDEQLKSGTASVVCLLNNFYPREAKVQWKVDNALQSGNSQESVTEQDSKDSTYSLSSTLTLSKADYEKHKVYACEVTHQGLSSPVTKSFNRGEC
 | 2.2 | 0.06 | MV-22 anti-c-Met/anti-VEGF bispecific antibody (bispecific antibody, human IgG2, kappa) heavy: EVQLVESGGGLVQPGGSLRLSCAASGFTFTDYYMSWVRQAPGKGLEWLGFIRNKANGYTTEYSASVKGRFTISRDNSKNTLYLQMNSLRAEDTAVYYCARDNWFAYWGQGTLVTVSSASTKGPSVFPLAPCSRSTSESTAALGCLVKDYFPEPVTVSWNSGALTSGVHTFPAVLQSSGLYSLSSVVTVPSSNFGTQTYTCNVDHKPSNTKVDKTVERKCCVECPPCPAPPVAGPSVFLFPPKPKDTLMISRTPEVTCVVVDVSHEDPEVQFNWYVDGVEVHNAKTKPREEQFNSTFRVVSVLTVVHQDWLNGKEYKCKVSNKGLPAPIEKTISKTKGQPREPQVYTLPPSREEMTKNQVSLTCLVKGFYPSDIAVEWESNGQPENNYKTTPPMLDSDGSFFLYSKLTVDKSRWQQGNVFSCSVMHEALHNHYTQKSLSLSPGKGGGGSGGGGSEVQLLESGGGLVQTGGSLRLSCAASGFTFSDYAMSWVRQAPGKGLEWVSWIYPGDSSIYYADSVKGRFTISRDNSKNTLYLQMNSLRAEDTAVYYCARLLSIDQAQLHYYYDAMDVWGQGTLVTVSSGGGGSGGGGSGGGGSQSVLTQPPSPSGTPGQRVTISCTGSSSNIGNYYVYWYQQLPGTAPKLLIYANSHRPSGVPDRFSGSKSGTSASLAISGLRSEDEADYYCGSWDDSLSAYVFGGGTKLTVLG light: DIQMTQSPSSLSASVGDRVTITCKSSQSLLASGNQNNYLAWYQQKPGKAPKMLIIWASTRVSGVPSRFSGSGSGTDFTLTISSLQPEDFATYYCQQSYSRPYTFGQGTKVEIKRTVAAPSVFIFPPSDEQLKSGTASVVCLLNNFYPREAKVQWKVDNALQSGNSQESVTEQDSKDSTYSLSSTLTLSKADYEKHKVYACEVTHQGLSSPVTKSFNRGEC
 | 4.43 | 0.04 | MV-20 anti-c-Met/anti-VEGF bispecific antibody (bispecific antibody, human IgG2, kappa) heavy: EVQLVESGGGLVQPGGSLRLSCAASGFTFTDYYMSWVRQAPGKGLEWLGFIRNKANGYTTEYSASVKGRFTISRDNSKNTLYLQMNSLRAEDTAVYYCARDNWFAYWGQGTLVTVSSASTKGPSVFPLAPCSRSTSESTAALGCLVKDYFPEPVTVSWNSGALTSGVHTFPAVLQSSGLYSLSSVVTVPSSNFGTQTYTCNVDHKPSNTKVDKTVERKCCVECPPCPAPPVAGPSVFLFPPKPKDTLMISRTPEVTCVVVDVSHEDPEVQFNWYVDGVEVHNAKTKPREEQFNSTFRVVSVLTVVHQDWLNGKEYKCKVSNKGLPAPIEKTISKTKGQPREPQVYTLPPSREEMTKNQVSLTCLVKGFYPSDIAVEWESNGQPENNYKTTPPMLDSDGSFFLYSKLTVDKSRWQQGNVFSCSVMHEALHNHYTQKSLSLSPGKGGGGSGGGGSEVQLLESGGGLVQPGGSLRLSCAASGFTFSNYDMSWVRQAPGKGLEWVSLISHGGGNIYYADSVKGRFTISRDNSKNTLYLQMNSLRAEDTAVYYCARVPVMCTNHWCSYANGMDVWGQGTLVTVSSGGGGSGGGGSGGGGSQSVLTQPPSASGTPGQRVIISCSASSSNIGSNAVYWYQQLPGTAPKLLIYSDNQRPSGVPDRFSGSKSGTSASLAISGLRSEDEADYYCGSWDYSLSAYVFGGGTKLTVLG light: DIQMTQSPSSLSASVGDRVTITCKSSQSLLASGNQNNYLAWYQQKPGKAPKMLIIWASTRVSGVPSRFSGSGSGTDFTLTISSLQPEDFATYYCQQSYSRPYTFGQGTKVEIKRTVAAPSVFIFPPSDEQLKSGTASVVCLLNNFYPREAKVQWKVDNALQSGNSQESVTEQDSKDSTYSLSSTLTLSKADYEKHKVYACEVTHQGLSSPVTKSFNRGEC
